Assay [1] concerns the target aged human serum albumin (human) (UniProt P02768). As to the kind of experiment: SEC. For orientation: Size exclusion chromatography separates by hydrodynamic size, large species first.
Assay [2] shares this target. Kind of assay: SEC + ELISA. On the technique in general: ELISA stands for enzyme-linked immunosorbent assay.
The target in assay [3] is aged human serum albumin aggregates (human) (UniProt P02768). Kind of assay: SEC + ELISA.

“aged human serum albumin (from UniProt P02768 25-609) (natural protein)”: the stoichiometry N (HSA molecules) in assay [1] turned out to be 8.

On to amyloid beta peptide 1-42, for which the figures for the fold less Aß bound than by fHSA monomers in assay [2] and in assay [3] were 4 times less and 12 times less, respectively.
